According to IntAct's records for PubMed 16595635:

What was measured:
tnfl6_human FASLG [1] = target: tnfl6_human FASLG (UniProt P48023)
tnfl6_human FASLG [2] = target: tnfl6_human FASLG (UniProt P48023); remark: listed apart in the source
tnfl6_human FASLG [3] = target: tnfl6_human FASLG (UniProt P48023); remark: listed apart in the source

UniProt P48023, sequence (P48023 whole entry): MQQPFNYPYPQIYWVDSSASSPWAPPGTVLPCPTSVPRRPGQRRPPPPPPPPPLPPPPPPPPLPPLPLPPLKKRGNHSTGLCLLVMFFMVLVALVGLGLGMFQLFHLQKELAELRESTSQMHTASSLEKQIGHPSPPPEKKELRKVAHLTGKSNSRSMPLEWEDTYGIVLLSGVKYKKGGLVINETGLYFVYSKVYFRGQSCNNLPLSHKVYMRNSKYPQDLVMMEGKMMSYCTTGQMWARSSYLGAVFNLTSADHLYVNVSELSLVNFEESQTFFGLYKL

Row | Substance | effect of a mutation on the interaction (tnfl6_human FASLG [1]) | effect of a mutation on the interaction (tnfl6_human FASLG [2]) | effect of a mutation on the interaction (tnfl6_human FASLG [3])
1 | SH2/SH3 adapter protein NCK1 (Homo sapiens) (from UniProt P16333-1) W38K;W143K;W229K | disrupting interaction strength | disrupting interaction strength | –
2 | SH2/SH3 adapter protein NCK1 (Homo sapiens) (from UniProt P16333-1) W143K | – | – | disrupting interaction strength
3 | SH2/SH3 adapter protein NCK1 (Homo sapiens) (from UniProt P16333-1) W229K | – | – | disrupting interaction strength
